# Assay: label from the status in PepcDB records
row,Sequence,protein production
1,MFIYGSDRLGGKMDINGFIEELDSLYTERRINDVEPFFNESIEQAKKENDLAAQFTILNEMMGFFRDTSQFEKSIKACNDCIELMKKMGIEGTVDYATSLQNVANAYRAAGKLAESLEVYKEVFSIYNENIPSDDYRMASLNNNIALLYQEMNDFPMAVQHLKKALSIIEKIEGMDIEVATTYTNLAASLIEINQASQAEDYLKKALEIFDRDEVKNFHYSGALCAMASVKCSLNQYEEAAKLYEKALPEIEANMGRGSAYNITKENLAKVFDKIKEEKKELTGIELAKSFYEEYGKDMIHNNFSEYEDKIAVGFVGEGSERFGFDDVYSRDHDFGPGFCMWITEDVYEKIGEKLQDEYNKLPKSYKGITRVDTIMAEGRVGVCVVEDFYKKYTGSGDGNLTLEQWINLEDYKIATVTNGEVFRDDLGYFSKIRRKFENQPFQARLVKLARQLGAMAQTGQSNYERAMARKDYVTAQICISDFMKETMKCVYILNNKFAPYYKWLFKGVSRLDGTEKIVSLLEKLSQLPAQKNAWDGYLYDNTKFNEKDEKAIIMEEIAKIIIDKLLELKLIKNRNSNFLNDYVRPIMDLAEGKVEMFDREKTIDKIVKLEFEAFDKVQNVGGRASCQNNWPFFYVMRKSQYMTWTDEMLECICNLWEENKAKGWNMITEKYGRMMEHTSPEEYKKIKDNFPEKSERTIAIVNQIAQIQVDWMKDFAKSYPKLASNARDITSDADQIDNTSYETYLKGELLTYSEELLKLYAQFIVNLAREGKNLAYMTIENTAHLQGYATLEAAESSIR,failed
2,MKLALITDTSAYLPEAIENHEDVYVLDIPIIIDGKTYIEGQNLTLDQYYDKLAASKELPKTSQPSLAELDDLLCQLEKEGYTHVLGLFIAAGISGFWQNIQFLIEEHPNLTIAFPDTKITSAPQGNLVRNALMCSREGMDFDVIVNKIQSQIEKIEGFIVVNDLNHLVKGGRLSNGSAIIGNLLSIKPVLHFNEEGKIVVYEKVRTEKKALKRLAEIVKEMTADGEYDIAIIHSRAQDKAEQLYNLLAKAGLKDDLEIVSFGGVIATHLGEGAVAFGITPKN,not failed
3,MENWVIQIIERLGYLGIAFLMFLDNVFPPIPSEIIMPSAGYTASRGQLQIIGVIVAGSLGSILAAAILYALGRQISHAALFRWTDRYGKYLLIQTKDLQIALEWFEKYGHRIVFFGRMIPAVRSLISIPAGMSRMPFWKFMLYSSLGTVIWTTFLAGVGFYFGENQAFMFSIMHRVGYLILAITLMVSVWWIYHKFYKKR,failed
4,MVFSNSLLSSTTSLTTWANQSSSQSSLSPRYSTWQCVCLRNQKRKPKLYLIPARHFLSTPIDSVSSSSITASRYATSGVSEVQRSTSSNNVTEMEEFEMELQELFNEVKSMVKIGKESDAMDLLRANYVAVKEELDSGLKGIEQAAVLDIIALGYMAVGDLKPVPALLDMINKIVDNLKDSEPLLDSVLMHVGSMYSVIGKFENAILVHQRAIRILENRYGKCNTLLVTPLLGMAKSFASDGKATKAIGVYERTLTILERNRGSESEDLVVPLFSLGKLLLKEGKAAEAEIPFTSIVNIYKKIYGERDGRVGMAMCSLANAKCSKGDANEAVDIYRNALRIIKDSNYMTIDNSILENMRIDLAELLHFVGRGDEGRELLEECLLINERFKGKNHPSMATHLINLAASYSRSKNYVEAERLLRTCLNIMEVSVGSEGQSITFPMLNLAVTLSQLNRDEEAEQIALKVLRIREKAFGEDSLPVGEALDCLVSIQARLGRDDGEILGLLKRVMMIQEKEFGPSAQELIVTLQKIIHFLEKLEMKDDKFKFRRRLALLRERYKQSLSY,failed
5,MGDFIGSVWWMIVSLGVLVTFHEFGHFWVARRCGVKVLRFSVGFGKPLWMRRDRHGTEFVVAAIPLGGYVKMLDEREGDVHPAEQDQAFNRKTVWQRIAIVAAGPIANLLLCMAMLWAMFVVGKQDYSATVGRADGLAAEAGLTPGERIVRIDGRSVSSWSDASMQLTTAAMDRRDVRVLTASDTASSSEHTLRLSQLPVGFDERRVAALAGIGWQFMLQPPVIAEVVKGSVADGLLKPGDRIVAIDGQPIRSAEDIIPQVQALGAHGGPGMIEVARGEDRLALEIAPRKSPQGQWMIGVRPAAAPAPEYDSRQQYGLFAAVPAAIRETGRMTADSLGMMKRMLTGQASVKNISGPVTIARAANASAERGLDWFLYFLGLLSLSLAIINLMPIPILDGGHLLYYLIELIKGSPISERAMIAGQYVGLAALAGLMGLAFYNDILGLVPR,failed
6,MEKKLTVNVSDTERIASVLAGSYFMYRSLKRQPKNYAAIASAGLLLFRGVTGHCPGYSAAGKKTLPAPVHNIDIETSVIVNRPVDTVYSFWRRLENLPLFMTHLKSVKQKDHNKSDWEAYLPGGIGSIHWEAKIVKDKPGKVIAWSSLENSTIHNAGKVMFEDIGELGTVINVVISYQAPLGVAGEKVLALLTPTFEKMIRKDIVNFKQYIETGKLPTDKEYAENGKSQFE,failed
7,QNVLDLHGLHVDEALEHLMRVLEKKTEEFKQNGGKPYLSVITGRGNHSQGGVARIKPAVIKYLISHSFRFSEIKPGCLKVMLK,not failed
8,ERRLCAILAADMAGYSRLMERNETDVLNRQKLYRRELIDPAIAQAGGQIVKTTGDGMLARFDTAQAALRCALEIQQAMQQREEDTPRKERIQYRIGINIGDIVLEDGDIFGDAVNVAARLEAISEPGAICVSDIVHQITQDRVSEPFTDLGLQKVKNITRPIRVWQWVPDADRDQSHDPQPSHVQH,not failed
9,YATGNKKNISGSVEKITELGMNKDQITNPLEAIRGRVPGLTIQKGTNGPAALDAVRLRGTTSLTSGNDPLIIVDGVFGDLSMLTSIYPTDIESFTILKDASETAQYGSRGASGVIEITTKKGIRG,failed
10,MASFSAETNSTDLLSQPWNEPPVILSMVILSLTFLLGLPGNGLVLWVAGLKMQRTVNTIWFLHLTLADLLCCLSLPFSLAHLALQGQWPYGRFLCKLIPSIIVLNMFASVFLLTAISLDRCLVVFKPIWCQNHRNVGMACSICGCIWVVAFVMCIPVFVYREIFTTDNHNRCGYKFGLSSSLDYPDFYGDPLENRSLENIVQPPGEMNDRLDPSSFQTNDHPWTVPTVFQPQTFQRPSADSLPRGSARLTSQNLYSNVFKPADVVSPKIPSGFPIEDHETSPLDNSDAFLSTHLKLFPSASSNSFYESELPQGFQDYYNLGQFTDDDQVPTPLVAITITRLVVGFLLPSVIMIACYSFIVFRMQRGRFAKSQSKTFRVAVVVVAVFLVCWTPYHIFGVLSLLTDPETPLGKTLMSWDHVCIALASANSCFNPFLYALLGKDFRKKARQSIQGILEAAFSEELTRSTHCPSNNVISERNSTTV,failed
11,MGHHHHHHSHPAEYNISPETRRAQAERLAIRAQLKREYLLQYNDPNRRGLIENPALLRWAYARTINVYPNFRPTPKNSLMGALCGFGPLIFIYYIIKTERDRKEKLIQEGKLDRTFHLSY,failed
12,MSEGMMLTTLDRLTIYAVLCFISLCALGLGETTQAQLMPVLGTAASIFGIWLEMRSEQDTTQQPHR,failed
13,MDDRTEYDVYTDGSYVNGQYAWAYAFVKDGKVHYEDADVGKNPAAATMRNVAGEIAAALYAVKKASQLGVKIRILHDYAGIAFWATGEWKAKNEFTQAYAKLMNQYRGIYSFEKVKAHSGNEFNDYVDMKAKSALGIRDLEHHHHHH,not failed
14,MRSRGEPLPAGGRMKTLAFVALALAGISWGLGFPTGKLILRETDAAHMVLLRFLVAAVAAAPFALRRPEVRALFRSPIVLLAGALYGVAFLVQFEGLAHVSVTVAALLVGAMPALIAVSARVLGEKVSRLSWAGVAAATLGAALIAGKPDGASSPLGVALSIAALFLFLTWLLVLRRAPPAPNPMAIPAVSIIVAALVVLPIALIMHGPPKLALSAPAWTAIVAQGVLATLLATAAWQYGAAQVGAASAGVFINIEPLMGAACGVLLFGDHLTAALFAGGLLIIGGSFAVVMGERQAKPGEIQATVAPTP,failed
15,MFQDNPLLAQLKQQIQEKLPKKEGTIKATERGFGFLESDDKKKSIFIPPAQMKKVMHGDKVVALIRTENEKEQAEPDQLIEQSITRFIGRIQMFKKRLQVMPDHPSLKNAIKAKTRKGVNPETLKEGDWVVAELTQHPLKGDQGFQCDITHKITDSDDKIAPWWVTLAQNDLPNSEPEGIEHWEIKDDADLVRVDMTATPFVTIDGESTKDMDDALYIKKLENGSFELTIAIADPTAYITPDDSMDKVARERGYTIYLPGRNIPMLPRDLSDELCSLIEGQERPALCCTVLVDANGNIQEDSINFFAATIKSHARLAYDHVSDFLETGSCDKWQPNDTIAQVVTELYEFAQVRTTWRETHAVIFPDRPDYRFELSEDNDVIAIHADMRRTANKLVEEAMVTANICAGKTLRAAFNMGVFNSHAGIKSDKLKDVVEIVNQLEGVDFTEEQIATLEGFSELRRLLGKQPTSYLDARIRKFQTYSETGNEPLPHYAMGLDIYATWTSPIRKYSDMINHRMLKAHILGKEPVQRPDDIVGEELAISRRFHRMAERNVSDWLYCRTLASEVEKETKYTAEIFDINRAGMRVRLIENGAAAFIPGSLIVDNKERIECNADQGIISIDKHETFKLGDQLHVVLAEVKEDTRNMVAKPLQAFPAPEPEEAPVVENEDATTNATTSADA,failed
16,METESEQNSNSTNGSSSSGGSSRPQIAQMSLYERQAVQALQALQRQPNAAQYFHQFMLQQQLSNAQLHSLAAVQQATIAASRQASSPNTSTTQQQTTTTQASINLATTSAAQLISRSQSVSSPSATTLTQSVLLGNTTSPPLNQSQAQMYLRPQLGNLLQVNRTLGRNVPLASQLILMPNGAVAAVQQEVPSAQSPGVHADADQVQNLAVRNQQASAQGPQMQGSTQKAIPPGASPVSSLSQASSQALAVAQASSGATNQSLNLSQAGGGSGNSIPGSMGPGGGGQAHGGLGQLPSSGMGGGSCPRKGTGVVQPLPAAQTVTVSQGSQTEAESAAAKKAEADGSGQQNVGMNLTRTATPAPSQTLISSATYTQIQPHSLIQQQQQIHLQQKQVVIQQQIAIHHQQQFQHRQSQLLHTATHLQLAQQQQQQQQQQQQQQQPQATTLTAPQPPQVPPTQQVPPSQSQQQAQTLVVQPMLQSSPLSLPPDAAPKPPIPIQSKPPVAPIKPPQLGAAKMSAAQQPPPHIPVQVVGTRQPGTAQAQALGLAQLAAAVPTSRGMPGTVQSGQAHLASSPPSSQAPGALQECPPTLAPGMTLAPVQGTAHVVKGGATTSSPVVAQVPAAFYMQSVHLPGKPQTLAVKRKADSEEERDDVSTLGSMLPAKASPVAESPKVMDEKSSLGEKAESVANVNANTPSSELVALTPAPSVPPPTLAMVSRQMGDSKPPQAIVKPQILTHIIEGFVIQEGAEPFPVGCSQLLKESEKPLQTGLPTGLTENQSGGPLGVDSPSAELDKKANLLKCEYCGKYAPAEQFRGSKRFCSMTCAKRYNVSCSHQFRLKRKKMKEFQEANYARVRRRGPRRSSSDIARAKIQGKCHRGQEDSSRGSDNSSYDEALSPTSPGPLSVRAGHGERDLGNPNTAPPTPELHGINPVFLSSNPSRWSVEEVYEFIASLQGCQEIAEEFRSQEIDGQALLLLKEEHLMSAMNIKLGPALKICAKINVLKET,failed
17,MDCCTENACSKPDDDILDIPLDDPGANAAAAKIQASFRGHMARKKIKSGERGRKGPGPGGPGGAGVARGGAGGGPSGD,failed
